The DeepSol protein solubility set

Experiment: soluble on expression in E. coli; label from the status in PepcDB or PDB records
With “MSLGRIYRGVEVGDVALGGKTPEEAREIVLRRAEGALERVELRGGPEGEISFDARRMGIDYKVRETVQAAYAVGREGNLLERLGERLRAAYGTVQIEPRVDYRPSVARQRIEEVASRLDRPPRQAEVNVYGSEVDVVGSREGYRVDVEATMRSVGEAVEDMSGEARLVGRVLEPEYTTAEAERAAERARRALDGELVLTYEGRRWTVSPAAIGDSLDITARDGEFRVGVDRDRLRENLSGVYAAINQEPVEAGYEISGEQITVTPSRTGRAIQDEKLLGAIEEGIFEGRREYRIPVAVDRPELTTAEAERLKPTDLLATYQTNYLTYDDSPGRVENLEIASEAVDGTLLAPGEVFSFNELAAPLDYHDTKVIINGRVDTAEGGGLCQVSSTLYMAANLAGLDVIERHPHYAELPYIRPGFDATVWFGALDMKFKNTSPGYILIREWVDRSTGTVNAAIYGRPSGIEVDMRSEKVSETVDEEGNPVTTWITYQTVRKNGEVVFDGVLHKDVYKYLKPAAPDAEGHHHHHH” the “soluble on expression in E. coli” value was “soluble”. For “MNMTDDLGGNILLLSGHPGSGKSTIAEALANLPGVPKVHFHSDDLWGYIKHGRIDPWLPQSHQQNRMIMQIAADVAGRYAKEGYFVILDGVVRPDWLPAFTALARPLHYIVLRTTAAEAIERCLDRGGDSLSDPLVVADLHSQFADLGAFEHHVLPVSGKDTDQALQSAINALQSGRFRIDASLEHHHHHH”, the “soluble on expression in E. coli” value was “soluble”. In the case of “MGHHHHHHHSSENLYFQGHMRKIRVGLIFGGKSAEHEVSLQSARNILDALDPQRFEPVLIGIDKQGQWHVNDPDSFLLHADDPARIALHRSGRGVALLPGAQQQQLRPIQPEQALAQIDVVFPIVHGTLGEDGSLQGLLRMANLPFVGSGVLGSAVAMDKDMAKRVLRDARLAVAPFVCFDRHTAAHADVDTLIAQLGLPLFVKPANQGSSVGVSQVRTADAFAAALALALAYDHKVLVEAAVAGREIECAVLGNAVPHASVCGEVVVHDAFYSYATKYISEHGAEIVIPADIDAQTQQRIQQIAVQAYQALGCAGMARVDVFLCADGRIVINEVNTLPGFTRISVYPKLWQASGLDYRGLITRLIELALERHTDDQLLRSAVELH”, the “soluble on expression in E. coli” value is reported as “soluble”. For “MGSDKIHHHHHHVTYVRNNALHCGPLPQHVTAPSFRSGTGFYETLLYNGCRLVNADAHMERITRSARACGLHLLPVDLHAAAQMLLDHLGLCGSMARINLFYTLENAPAADASGLCPPLVPAVTAAPYTPPPADKAFRLCRALHGVQSWWHEHKTTAHMGHLMERTHAQAAGYDDAVLHLPDGAILETTTAALIFYNGSRFTAPFPRFRLSSTAEALVKDVLGITYEKITADRLGCMQHAYVLNALMGMRPVRSIDTAEFNPDTDLCNEMTVLIQKAA”, the “soluble on expression in E. coli” value was “not soluble”. With “MGANGASGDHKQLKEIRIGIQQSLSPLLIAKEKGWFEDAFEKEGIKVKWVEFQSGPPQFEGLAADKLDFSQVGNSPVIAGQAAGIDFKEIGLSQDGLKANGILVNQNSGIQDVKGLKGKKIAVAKGSSGFDFLYKALDQVGLSANDVTIIQLQPDEAASAFENGSVDAWSIWEPYLSLETMKHGAKILVNGESTDLYSPGFTLVRTKFSEEHPDEVVRFLKVFNKAVVWQKEHLDEAADLYSDIKDLDKKVVENVLKNTEPLNEIISDDIVKAQQETADFQFRTKAIDKKIDVKDVVDNTFIKKALEEHSSGGDQLEHHHHHH” the “soluble on expression in E. coli” value was “soluble”. With “MELKNKKWTDEEFHKQREEVLQQWPTGKEVDLQEAVDYLKKIPAEKNFAEKLVLAKKKGITMAQPRAGVALLDEHIELLRYLQDEGGADFLPSTIDAYTRQNRYDECENGIKESEKAGRSLLNGFPGVNFGVKGCRKVLEAVNLPLQARHGTPDSRLLAEIIHAGGWTSNEGGGISYNVPYAKNVTIEKSLLDWQYCDRLVGFYEEQGVHINREPFGPLTGTLVPPSMSNAVGITEALLAAEQGVKNITVGYGECGNMIQDIAALRCLEEQTNEYLKAYGYNDVFVTTVFHQWMGGFPQDESKAFGVIVTATTIAALAGATKVIVKTPHEAIGIPTKEANAAGIKATKMALNMLEGQRMPMSKELETEMAVIKAETKCILDKMFELGKGDLAIGTVKAFETGVMDIPFGPSKYNAGKMMPVRDNLGCVRYLEFGNVPFTEEIKNYNRERLQERAKFEGRDVSFQMVIDDIFAVGKGRLIGRPE” the “soluble on expression in E. coli” value was “soluble”. In the case of “MGSDKIHHHHHHMKEKVVLAYSGGLDTSVILKWLCEKGFDVIAYVANVGQKDDFVAIKEKALKTGASKVYVEDLRREFVTDYIFTALLGNAMYEGRYLLGTAIARPLIAKRQVEIAEKEGAQYVAHGATGKGNDQVRFELTYAALNPNLKVISPWKDPEFLAKFKGRTDLINYAMEKGIPIKVSKKRPYSEDENLMHISHEAGKLEDPAHIPDEDVFTWTVSPKDAPDEETLLEIHFENGIPVKVVNLKDGTEKTDPLELFEYLNEVGAKNGVGRLDMVENRFIGIKSRGVYETPGATILWIAHRDLEGITMDKEVMHLRDMLAPKFAELIYNGFWFSPEMEFLLAAFRKAQENVTGKVTVSIYKGNVMPVARYSPYSLYNPELSSMDVEGGFDATDSKGFINIHALRLKVHQLVKKGYQR”, the “soluble on expression in E. coli” value is reported as “soluble”. With “MLTDQEKIDLVNALDFVVIEPHTQSIYVHNDEKTNGVLAKVLHTISVDEYIESFKKGSLIDIFPAAMQEAGAEGFKDGQFVIMPKKFYVDQCYAMSKEIERLTNLNNLHNIKPNTYQGLIHLEHHHHHH” the “soluble on expression in E. coli” value was “soluble”. With “MQLQLICEDPSQQSHLDELAARWQLSHTDESDFALVLTAERLELRKVDEPKLGAIFVDLIGGAVGHRRKFGGGKGQAIAKAAGLNKGATPTVLDGTAGLGRDAFVLASLGCKVQMVERHPVVAALLDDGLARAKQDPEIGTWVSERMSLIHASSHDALDQLAQDREFVKPDVVYLDPMYPHPENKKKSALVKKEMRVFQSLVGADLDADGLLEPALALATKRVVVKRPDYANWLNEQKPSMAIETKKNRFDVYVKASMALEHHHHHH” the “soluble on expression in E. coli” value was “soluble”. With “MGSDKIHHHHHHMKKPSQFDAIVVGAGPSGNAAAYTMARAGLKVLQIERGEYPGSKNVQGAILYAKALEEIIPDFRDDAPLERHIIEQRIWMLDDTSFVGTHMRSEEYNKPPYNRYTIIRAQFDKWFSSKVREAGALLICETTVKQLIMDGDQVVGVQCDREHGDVYADVVVLADGVNSTLARKAGFHGEIEAGNVALAVKEILFMPEETIRQRFNIGEDDGVVIEMVGRITDGMTGTGFLYTNKESLTIGVGCMLGDFKKNPNRTSPYVLLEKMKQHPSIAPLIAGGEMKEYCAHLIPEGGFHAIPRVYGNGWMIVGDSGGFVNAAHREGSNLAMTTGRLAAETVIHAKAAGLGYRAATLKAYKAALDQSFVMKDLHKYRDMPAVLHQNPQFFTTYPDLVARAARTMLTVDGKDKKSKEREIFSSFRKARSLAGMVGDAYKLLRAFR” the “soluble on expression in E. coli” value was “not soluble”. With “MANQKQVLDVQVSKGITTAQSNEHLRDRSEKAEKYAMSKGNYDPTRKRLNFEIAPGGKIHPIDTSRSIPKRMADILSHRGIKDPNEGLLEPKYRTVVNIIFGGSRQRMQELAFGTQQVDFEKGADNTRIERKRDIERWAKDVYSFVCGRYGEQNIAAFIVHLDELNPHIHCTLLPIKDSRFAYKEIFAGKDKFEYSARMKQLHTDFFAEVNTKWGMSRGTSISETGARHRTTEEYRRMLSEECTTIEDNIKLHQQVLGELQSDIRLAERRVKGLTTMVSNLEKQKTEKETLLSAAEYNLKENKGNAAELAIQIQMLEKELQGIIRQLADKQEKLQTADRQLIELKKDMGAIEERTEELKEEAYQYSRDVHSKVDSLFKDVLLESVISEYRNASAQMNVSERQLFDGSLVQSIAERGTEIMHCATMLFLGMVDDATTFAESHGGGGGGSDLKWGRDEDEDNRAWALRCMRMASRMMRSTIGKKSKRLEHHHHHH” the “soluble on expression in E. coli” value was “not soluble”. With “AHHHHHHGSLKLSDFIPLTMLREGETGVVVDIQSGVNARGKLLSMGITPGVRVRMIKSRKPGPVIIGIGSSKIALGWGIASKIIVRRE” the “soluble on expression in E. coli” value was “not soluble”. With “MGHHHHHHSHMEKCSVGGLELTEQTPALLGNMAMATSLMDIGDSFGHPACPLVSRSRNSPVEDDDDDDDVVFIESIQPPSISAPAIADQRNFIFASSKNEKPQGNYSVIPPSSRDLASQKGNISETIVIDDEEDVETNGGAEKKSSFFIEWGLPGTKNKTNDLDFSTSSLSRSKTKTGVRPFNPGRMNVAGDLFQNGEFATHHSPEMHLQRRLMSFFQ” the “soluble on expression in E. coli” value was “not soluble”. In the case of “MSLAKVLVIDEDRSTLARLELLLTKDGYETVTASTGTDGLNRYVERYPDLVILDVFLSDVGGFTVLEELLEENEQAMVILMTAQLDMETAIRAMKLGAFDYVPKTADMAELLSVVHKASNTLETDRQQGGLSGEAFRNYKAGDIIGAGREMREIFKMVGVLSRSRATVLIEGESGTGKELVAKVIHKHTSSNEPFIAVNCSAIVETLLESELFGHEKGSFTSAFNRQLGKFELGRYGTVFLDEISEMSINLQAKLLRVLQEMEFERVGGKDKIQVHARIITATNKNLRTLVREGKFRADLYYRLNIVSLKIPPLRERQEDIPLLVNHLIAKIGRDLSRRISGVSEEVMEAFLRYTWPGNVRELENLLVRAGVMAKGRILDKSDFPELFKESGEGHHHHHH”, the “soluble on expression in E. coli” value is reported as “not soluble”. For “MGSDKIHHHHHHMLFHKFFDFFEGYEDCYVIIGGNAAAIWLAQDHQDFRATQDYDMVVIFENSQLGFSQKFDDFIEKYGYLCVEIGGDVNKKKVYYRFALDPALAVTGVPQQIELFSKIPLRYELRLPTETMPLHFATGPSLSAIVLNDDYYSLLKQCQQKIGHVSILSVPGLIYFKAKAHLDIRQRLANGDKLRHRANKNKHYKDVCRLCDLIIENQTFDSKVVPRTCQNDLKSFIQLVEAEPEQIFKKRFKSDPDFDLNRDEVVRVLRSLLPTS”, the “soluble on expression in E. coli” value was “not soluble”. For “MLSQKLFEEISAKISETIAASPAKDIEKNVRAMMASTFSKMDLVTREEFDVQQAVLARTREKLAALESRLARLESQAFPDEAAAKVEEQSELGHS”, the “soluble on expression in E. coli” value was “not soluble”. For “MGSDKIHHHHHHMTKEFTPILLGSDINVYGMARSFNEAYGIRVKALADVQLAATRYSKIVDVELHHGFSADPTFMDVMRKKMEIYKDHKEPVILIACGDGYAELLSKHKDELSKVFIVPYIEYDLLEKLISKEGFYEVAEEYGLPYPKTKIITMDDYKSGKYKDVPFQFPVELKPEDPVSWLNCQFEGRKKTFTLHDENEFEDIVTKIYTHGYTEDLILQDFIPGDDSNMRTLNAYVDKNHQVKMMCLGHPLLEDPTPQSIGNYMTILPAYDEKLYEQVQSFLEKLNYTGMANFDIKYDERDGQYKFFEINLRQGRSSFYVTLNGYNLAKWYIDDYVEDNLSDKKTVYGNKLKSKHVLWMGVPVKIFKEYAFENEAKDTAEELIHEGRYGTTVFYDKDRSLKRWLLMKYMFHNYFARYKKYYEVNKGQYFKKNK”, the “soluble on expression in E. coli” value was “not soluble”. For “MGSDKIHHHHHHMNYTQNQKISQITPSTLVIGIDVAKDKHVARAQDDRGLEFGKRLIFENRIHGFELLLEWALRHAKENSKDHIIFGVEPTGHYWLNLAYYLTAKDFDFVLVNPMHVKKSKELDDNSPTKNDTKDAKVISQLIKDGRYSVPNLLDGIYAELREGVKLRDQLIQQLLITEGRIQNIIDRYFPEFFDVFGDWEGKAAFCTLKLFPFPSQIVKMTPEEVLRQWKPFVQRGVGIKRATKLVETAHKSIGITIGSHFAQREMSSLLDQWELFKKQLEELDQELEGVVRTIPGANEMIDITGLGVATVTTVLSEIGDLKKYKHPQQLVNLAGLSLRENSSGKFKGQTTITKRGRSKLRRALYLAIRPLVAHNPTFKALHHYYTKRPDKPLKKQQSLIALCCKLLRVLFVIGQKQCPFDGSKLLQGIPQEKTLQAA”, the “soluble on expression in E. coli” value was “not soluble”. For “MSDNLKIGLQYLTPKHALTRLAGKLASAKMGWLTTAVIKWFIKQYNVNMDEAKNPDPEAYSTFNNFFVRELEDGARPINEDDSVISHPADACVSQFGPIMDGKLVQAKGHVYSAQELLGGDEALAAEFMGGEFATLYLSPSDYHRVHMPCDATLRKMIYVPGDLFSVNPLTAENVPNLFARNERVVCIFDTEFGPMAQILVGATIVGSIETTWAETVTPPTGPAVKTWHYPLSGDDMICFKKGEEMGRFKLGSTVINLFAPNSIKFDDSMENGTPTRMGTPFAHIVKLEHHHHHH”, the “soluble on expression in E. coli” value was “soluble”.
